The text below walks through data of US20250243287A1 (SHENGHE CHINA BIOPHARMACEUTICAL, published 2025).

Numbering of substitutions follows the chain as printed.

The chains are these.
B1: chimeric antibody CH-2 (antibody, V domains shown)
VH: QVQLQQSGAELARPGASVTLSCKASGYTFTDYEMHWVKQTPVRGLEWIGAIDPETGATAYNQKFKGKATLTADKSSNTAYMELRRLTSEDSAVYYCKSRAGGRGRFAYWGQGTLVTVSA
VL: DVVMTQTPLSLPVRLGDQASISCRSSQSLVHSSGNTYLHWYLQKSGQSPKLLIYKVSNRFSGVPDRFSGSGSGTDFTLKISRVEAEDLGVYFCSQTTHVPYTFGGGTKLEIK
notes: Variable domains of Ms-2 in a human IgG framework, expressed in CHO cells
B2: Hu-2-Z5 (antibody, V domains shown)
VH: QVQLVQSGAEVKKPGASVKVSCKASGYTFTDYEMHWVRQAPGQGLEWMGAIDPETGATAYNQKFKGRVTLTADTSISTAYMELSRLRSDDTVVYYCASRAGGRGRFAYWGQGTLVTVSS
VL: EVVMTQSPGTLSLSPGERATLSCRSSQSLVHSSGNTYLHWYQQKPGQSPRLLIYKVSNRFSGIPDRFSGSGSGTDFTLTISRLEPEDFAVYFCSQTTHVPYTFGGGTKLELK
notes: Humanized from CH-2; also called humanized antibody Hu-2-Z5
B3: Hu-2-Z7 (antibody, V domains shown)
VH: B2 VH with A97K
VL: B2 VL with V2I, M4L, S48A, F92Y
notes: Humanized from CH-2; also called humanized antibody Hu-2-Z7
B4: Hu-2-Z9 (antibody, V domains shown)
VH: B2 VH with A97K
VL: B2 VL with E1D, G9L, R50K
notes: Humanized from CH-2; also called humanized antibody Hu-2-Z9
B5: Hu-2-Z8 (antibody, V domains shown)
VH: B2 VH with A97K
VL: B2 VL
notes: Humanized from CH-2; also called humanized antibody Hu-2-Z8
B6: Hu-2-Z3 (antibody, V domains shown)
VH: B2 VH with L70S, A72R, S98R
VL: B2 VL with E1D, G9L, R50K
notes: Humanized from CH-2; also called humanized antibody Hu-2-Z3
B7: Hu-2-Z1 (antibody, V domains shown)
VH: B2 VH with L70S, A72R, S98R
VL: B2 VL with V2I, M4L, S48A, F92Y
notes: Humanized from CH-2; made by the aforementioned method (human IgG framework); also called humanized antibody Hu-2-Z1
B8: Hu-2-Z2 (antibody, V domains shown)
VH: B2 VH with L70S, A72R, S98R
VL: B2 VL
notes: Humanized from CH-2; also called humanized antibody Hu-2-Z2
B9: Hu-2-Z11 (antibody, V domains shown)
VH: B2 VH with G42V, Q43R, A97K
VL: B2 VL
notes: Humanized from CH-2; also called humanized antibody Hu-2-Z11
B10: Hu-2-Z6 (antibody, V domains shown)
VH: B2 VH
VL: B2 VL with E1D, G9L, R50K
notes: Humanized from CH-2; also called humanized antibody Hu-2-Z6
B11: Hu-2-Z4 (antibody, V domains shown)
VH: B2 VH
VL: B2 VL with V2I, M4L, S48A, F92Y
notes: Humanized from CH-2; also called humanized antibody Hu-2-Z4
B12: Hu-2-Z10 (antibody, V domains shown)
VH: B2 VH with G42V, Q43R, A97K
VL: B2 VL with V2I, M4L, S48A, F92Y
notes: Humanized from CH-2; also called humanized antibody Hu-2-Z10
B13: Hu-2-Z12 (antibody, V domains shown)
VH: B2 VH with G42V, Q43R, A97K
VL: B2 VL with E1D, G9L, R50K
notes: Humanized from CH-2; also called humanized antibody Hu-2-Z12
B14: Hu-15-Z6 (antibody, V domains shown)
VH: EVQLVESGGGLVQPGGSLRLSCAASGFTFNTNAMNWVRQAPGKGLEWVGRIRTKSNNYATYYAESVRDRFTISRDDSKNSLYLQMNSLKTEDTAMYYCVRGGYGIRGDYTMDYWGQGTLVTVSS
VL: DIVMTQSPPTLSLSPGERATLSCRSSKSLLHSNGNTYLYWFQQKPGQSPQLLIYRMSNLASGIPDRFSGSGSGTDFTLTISRLEPEDFAVYYCMQHLEYPFTFGQGTKLEIK
notes: Humanized from CH-15; also called humanized antibody Hu-15-Z6
B15: Hu-15-Z7 (antibody, V domains shown)
VH: B14 VH
VL: B14 VL with N33Q
notes: Humanized from CH-15; also called humanized antibody Hu-15-Z7
B16: Hu-15-Z9 (antibody, V domains shown)
VH: B14 VH with D108E
VL: B14 VL
notes: Humanized from CH-15; also called humanized antibody Hu-15-Z9
B17: Hu-15-Z10 (antibody, V domains shown)
VH: B14 VH with G107A
VL: B14 VL
notes: Humanized from CH-15; also called humanized antibody Hu-15-Z10
B18: Hu-15-Z2 (antibody, V domains shown)
VH: B14 VH with M95V, V99A
VL: B14 VL with D1E, P9G, Q50R
notes: Humanized from CH-15; also called humanized antibody Hu-15-Z2
B19: Hu-15-Z4 (antibody, V domains shown)
VH: B14 VH
VL: B14 VL with D1E, M4L, P9G, F41Y, S48A, Q50R
notes: Humanized from CH-15; also called humanized antibody Hu-15-Z4
B20: Hu-15-Z1 (antibody, V domains shown)
VH: B14 VH with M95V, V99A
VL: B14 VL with D1E, M4L, P9G, F41Y, S48A, Q50R
notes: Humanized from CH-15; made by the aforementioned method (human IgG framework); also called humanized antibody Hu-15-Z1
B21: Hu-15-Z3 (antibody, V domains shown)
VH: B14 VH with M95V, V99A
VL: B14 VL
notes: Humanized from CH-15; also called humanized antibody Hu-15-Z3
B22: Hu-15-Z5 (antibody, V domains shown)
VH: B14 VH
VL: B14 VL with D1E, P9G, Q50R
notes: Humanized from CH-15; also called humanized antibody Hu-15-Z5
B23: Hu-15-Z8 (antibody, V domains shown)
VH: B14 VH
VL: B14 VL with G34A
notes: Humanized from CH-15; also called humanized antibody Hu-15-Z8
B24: Ms-2 (antibody, V domains shown)
VH: B1 VH
VL: B1 VL
notes: Mouse hybridoma antibody; also called mouse-derived anti-CCR8 antibody Ms-2
B25: Ms-8 (antibody, V domains shown)
VH: EVQLVETGGGLVQPKGSLKLSCAASGFTFNTYAMNWVRQTPEKGLEWVARIRTKSNNYATSYADSVKDRFTISRYDSQNMLYLQMNNLKTEDTAMYYCVRGGYGIRGDYAMDYWGQGTSVTVSS
VL: DIVMTQAAPSVPVTPGESVSISCRSTKSLLHSNGNTYLYWFLQRPGQSPQLLIYRMSNLASGVPDRFSGSGSGTTFTLRISRVEAEDVGVYYCMQHLEYPFTFGSGTKLEIK
notes: Mouse hybridoma antibody; also called mouse-derived anti-CCR8 antibody Ms-8
B26: Ms-1 (antibody, V domains shown)
VH: QVQLQQSGAELVRPGASVTLSCKASGYTFTAYEMHWVRQTPVNGLEWIGAIDPKTGVTAYNQKFKDKAIMTADKYSSTAYMDLRSLTSEDSAVYYCTSRAGGRGRFAYWGQGTLVTVSA
VL: B1 VL with R14S, G34A, S45P, L51V, V90L, T96S, Y101F
notes: Mouse hybridoma antibody; also called mouse-derived anti-CCR8 antibody Ms-1
B27: Ms-15 (antibody, V domains shown)
VH: B25 VH with Y32N, T40A, E42G, A49G, S61Y, K67R, N79G, A110T
VL: B25 VL with T26S, T75A
notes: Mouse hybridoma antibody; also called mouse-derived anti-CCR8 antibody Ms-15

T1 sequence (P51685 whole entry): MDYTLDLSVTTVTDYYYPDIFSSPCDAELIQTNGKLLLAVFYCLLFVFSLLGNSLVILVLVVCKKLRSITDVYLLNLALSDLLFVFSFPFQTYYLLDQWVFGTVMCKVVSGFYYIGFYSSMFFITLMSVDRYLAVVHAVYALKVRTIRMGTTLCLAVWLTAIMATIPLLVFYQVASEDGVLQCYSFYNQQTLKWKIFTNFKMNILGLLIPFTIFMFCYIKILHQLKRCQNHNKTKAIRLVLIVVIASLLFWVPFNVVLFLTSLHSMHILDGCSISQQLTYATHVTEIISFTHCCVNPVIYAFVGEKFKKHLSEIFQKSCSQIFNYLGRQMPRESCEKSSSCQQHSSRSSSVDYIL

The first assay has as its target T1, human CCR8 (chemokine (C-C motif) receptor 8) (human, UniProt P51685 1-355).
T1 construct: whole, on cells; also called CCR8-CHO-K1 cells; CHOK1-CCR8 cells
Description: flow cytometry on CCR8-CHO-K1 cells, PE anti-human IgG Fc secondary. The protocol:
The antibody to be tested was taken as the initial concentration of 50 μg/mL and diluted 5-fold with 6 gradients. The cells CCR8-CHO-K1 in the incubator were taken out, and the cell suspension was transferred to a 15 mL centrifuge tube, centrifuged, and counted by resuspension in PBS. A blank control group (Blank), a negative control group (NC), an experimental group, a positive control group (positive control BMK derived from the 1K17 sequence of US20210277129) and the irrelevant antibody group were kept. The cell suspension was spread in a 96-well plate according to about 3×10⁵ cells/well. Centrifugation (1000 rpm, 5 min) was performed, followed by washing with PBS, re-centrifugation, and repeated twice to remove media residues. […]
(§1) After 1 h, PBS was added to wash twice. […] After the supernatant was discarded, 120 μL of PBS was added to resuspend and sequentially flow cytometry was performed to detect the mean fluorescence intensity. […]
The binding activity of the chimeric antibodies was detected by FACs method, the secondary antibody was PE F(ab′) 2 sheep anti-human IgG Fc (Biolegend, Cat: 398004), and the assay procedure was the same as Example 6, and the results are shown in FIG. 2.
(In general: A flow cytometer gives signals particle by particle.)
Consider B1, for which the binding result is recorded as “binds”.

A further assay addresses T1, human CCR8 (chemokine (C-C motif) …). Description: flow cytometry on CHOK1-CCR8 cells, steps of Example 6.
For B2, the binding result was “binds”. With B3, the binding result was “binds”.

Take B4: the binding result was “binds”. In the case of B5, the binding result is reported as “binds”.

Regarding B6, the binding result was “binds”. For the molecule B7, the binding result was “binds”. B8: the binding result is given as “binds”. The same measure, in the same setting: the value for B9 was “binds”. With B10, the binding result is “binds”. For the molecule B11, the binding result is “binds”.

Regarding B12, the binding result is listed as “binds”. On the same count and under the same terms, the value for B13 was “binds”; that for B14 was “binds”; that for B15 was “binds”. Take B16: the binding result is “binds”.

B17: the binding result is recorded as “binds”.

Turning to B18, the binding result is recorded as “binds”. As for B19, the binding result is reported as “binds”. Regarding B20, the binding result is reported as “binds”. Turning to B21, the binding result is listed as “binds”. Still for that read-out and setting: under B22 stands “binds”.

For B23, the binding result is listed as “binds”.

For another assay the target is unchanged. Description: flow cytometry on CCR8-CHO cells. How it is done: (§2) The antibody to be tested was taken as the initial concentration of 50 μg/mL and diluted 5-fold with 6 gradients. The cells CCR8-CHO-K1 in the incubator were taken out, and the cell suspension was transferred to a 15 mL centrifuge tube, centrifuged, and counted by resuspension in PBS. A blank control group (Blank), a negative control group (NC), an experimental group, a positive control group (positive control BMK derived from the 1K17 sequence of US20210277129) and the irrelevant antibody group were kept. The cell suspension was spread in a 96-well plate according to about 3×10⁵ cells/well. Centrifugation (1000 rpm, 5 min) was performed, followed by washing with PBS, re-centrifugation, and repeated twice to remove media residues. The supernatant was discarded, 100 μL of primary antibody solution and irrelevant antibody solution were added to the experimental group and irrelevant antibody group, respectively, and the cells were resuspended and incubated at room temperature for 1 h. The blank group, and the negative control group were incubated with an equal amount of PBS.
as §1
As for B24, the binding result is listed as “binds”. Turning to B25, the binding result is “binds”.

A further assay shares this target. Description: flow cytometry on CCR8-CHO-K1 cells. The protocol:
as §2, §1
For B26, the binding result is given as “binds”. As to B27, the binding result is “binds”.
